Measured values reported in article PMC3324469, “Preparation and Characterization of the Extracellular Domain of Human Sid-1” (PLoS ONE, 2012).
Values joined by “and” are separate entries in the source; they are usually repeats but may differ in a detail not shown here. Equal values may be shown once.

Molecular target: the molecule itself
Experiment: SEC; Superdex 200; concentrated protein applied directly to the column, no pre-incubation period; masses estimated against molecular weight standards

B1: extracellular domain of human SidT1 (SidT1 ECD), glycosylated, secreted from insect cells (domain or fragment)
chain: GAASPGHPAKSPRQPPAPRRDPFDAARGADFDHVYSGVVNLSTENIYSFNYTSQPDQVTAVRVYVNSSSENLNYPVLVVVRQQKEVLSWQVPLLFQGLYQRSYNYQEVSRTLCPSEATNETGPLQQLIFVDVASMAPLGAQYKLLVTKLKHFQLRTNVAFHFTASPSQPQYFLYKFPKDVDSVIIKVVSEMAYPCSVVSVQNIMCPVYDLDHNVEFNGVYQSMTKKAAITLQKKDFPGEQFFVVFVIKPEDYACGGSFFIQEKENQTWNLQRKKNLEVTIVPSIKES
modifications: N-linked glycosylation (sites not given)
notes: N-terminal glycine appendage left from the TEV protease site; human SidT1 (Sid-1 homolog), extracellular domain, residues 19-304 of Entrez Protein AAI17223, after signal peptidase and TEV cleavage; also called SidT1 extracellular domain; recombinant SidT1 ECD; source: Tni (usually) or Sf9 insect cells, baculovirus, secreted into the medium; not shown: His6, N-terminal, cleaved
In the case of B1, the “stoichiometry N” value is reported as 2 and 4.
